How the values were obtained:
[1] = system: Malignant Lymphoma; experiment: Clinical monotherapy of rhTNFm1, malignant lymphoma; assay type: in vivo, human; settings: 71 patients
Excerpt: (§1) Patients were selected based on the following criteria: i) measurable, objective tumor; ii) Karnofsky performance status (KPS)≧60; iii) age 18-75; iv) major organs in basically normal condition; v) no chemotherapy, radiotherapy and biologic therapy within the last month; vi) predicted ≧3 mon. survival; and vii) with patient's informed consent signed.
(§2) Patients were excluded based on the following criteria: i) with history of allergic reactions to TNF or its derivatives; ii) pregnant or lactating women; iii) major organs with obvious damages or malfunction; iv) in ≧38° C. fever; v) with obvious tendency to haemorrhage; vi) with history of hypo- or hypertension; vii) with serious albuminemia; and viii) with strong tendency of disobedience or resistance.
(§3) Patients were removed from the evaluation if any of the following conditions apply: i) treatment was not completed according to the protocol; ii) incomplete records; and iii) treatment using cancer therapies not in the protocol. However, patients who withdrew due to adverse reactions to the therapy were still included in the evaluation.
The results of the treatment of tumors were evaluated based the following criteria: i) complete response (CR)—complete disappearance of observable pathological changes for at least 4 weeks; ii) partial response (PR)—reduction by ≧50% in tumor size measured by the product of the maximum circular and vertical dimensions for at least 4 weeks; iii) minimum response (MR)—reduction by >25% but <50% in tumor size measured by the product of the maximum circular and vertical dimensions for at least 4 weeks; iv) stabilized (SD)—reduction by ≦25% but without increase by >25% in tumor size measured by the product of the maximum circular and vertical dimensions for at least 4 weeks; and progression (PD): increase by >25% in tumor size in one or more sites.
Patients rested on day 1 and 2. The treatment cycle was 3-4 weeks.
Table II summaries results of the treatment of patients with malignant lymphoma, classified according to Hodgkin's disease and non-Hodgkin's lymphoma. Within each of category of lymphoma, patients were further classified into two groups: chemo-naïve and chemo-refractory. The chemo-naïve patients were patients who had never been treated with any anti-cancer agent previously whereas chemo-refractory patients were ones who failed treatment with one or more anti-cancer agent.

[2] = system: malignant ascites; experiment: Clinical monotherapy of rhTNFm1, malignant ascites; assay type: in vivo, human; settings: 28 patients, monotherapy i.p.
Excerpt: as §1, §2, §3
The results of the treatment of malignant pleural effusion (or hydrothorax) and ascites were evaluated based on a modified Millar standard (Millar J W, Hunfer A M, Home N W. (1980) “Inerapleural immunotherapy with CP”, in Recurrent Malignant Pleural Effusions. Thorax 35:856): i) complete response (CR)—complete disappearance of pleural effusion or ascites for at least 1 month; ii) partial response (PR)—reduction by at least 1 grade for at least 1 month; iii) minimum response (MR)—reduction in the levels of pleural effusion or ascites within the same grade for at least 1 month; iv) stabilized (SD)—levels of pleural effusion or ascites maintained within the same grade for at least 1 month; and progressed (PD): increase in the levels of pleural effusion or ascites compared with those before the treatment.
It is noted that Table III includes the patients who withdrew due to […], including 1 with malignant pleural effusion and 1 with malignant ascites. For patients with malignant ascites, rhTNFm1 was reconstituted in 30-50 ml normal saline and administered intraperitoneally (i.p.) at 2,000,000-3,000,000 units each time, 1-2 times a week, with 2-3 weeks as one treatment cycle. Optionally, rhTNFm1 was administered to the patients by alternating between i.p. injection and i.v. injection (at 600,000-900,000 unit/m^2 per day continuing for 28 days as one treatment cycle). On the day when rhTNFm1 was administered via i.p. injection, administration of rhTNFm1 via i.v. injection was stopped.

B1: rhTNFm1: Recombinant human TNF-α mutant 1 expressed in E. coli; SEQ ID NO: 3 with N-terminal methionine (FIG. 1, 2) (protein)
chain: MRKRKPVAHVVANPQAEGQLQWLNRRANALLANGVELRDNQLVVPSEGLYLIYSQVLFKGQGCPSTHVLLTHTISRIAVSYQTKVNLLSAIKSPCQRETPEGAEAKPWYEPIYLGGVFQLEKGDRLSAEINRPDYLDFAESGQVYFGIIAQ
modifications: rhTNFm1 with Met
[1]
  Response Rate (%) CR: 2.82%
  Response Rate (%) CR + PR: 28.17%
  Response Rate (%) PR: 25.35%
[1]; patient count
  Efficacy CR: 2
  Efficacy MR: 8
  Efficacy PD: 11
  Efficacy PR: 18
  Efficacy SD: 32
[2]
  Response Rate (%) CR: 3.57%
  Response Rate (%) CR + PR: 42.86%
  Response Rate (%) PR: 39.29%
[2]; patient count
  Efficacy CR: 1
  Efficacy MR: 3
  Efficacy PD: 1
  Efficacy PR: 11
  Efficacy SD: 12

Reference: patent US20060263331A1, “Therapeutic use of tumor necrosis factor-alpha mutein” (priority 2002, published 2006)
